Ends that are not written are not given here.
T1: BMP-4 (Homo sapiens, UniProt P12644)
T1 construct: purchased R&D Systems 314-BM
T1 sequence (P12644 293-408): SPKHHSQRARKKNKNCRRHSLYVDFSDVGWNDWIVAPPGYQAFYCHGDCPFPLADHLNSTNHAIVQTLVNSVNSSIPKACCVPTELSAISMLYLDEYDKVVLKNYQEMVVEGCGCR

T2: Recombinant human BMP-4 (human, UniProt P12644 293-408)
T2 construct: Bought protein; also called hBMP-4
T2 sequence (looked up): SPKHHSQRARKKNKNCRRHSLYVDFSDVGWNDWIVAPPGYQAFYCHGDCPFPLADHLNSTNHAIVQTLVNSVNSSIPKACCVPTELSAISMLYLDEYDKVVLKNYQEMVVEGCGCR


Columns and labels:
BMP-4 = target: T1, BMP-4; assay: In vitro interaction test, variant A: immobilized BMP-4, detection of binding of RGMA-Fc fusion proteins; settings: Working Example 3, FIG. 5; detection anti-human-Fc or anti-Myc
Method: Test Method 4: In Vitro Interaction Test for Determining the Interaction between RGMA and BMP-2 and -4
The interaction tests were carried out as described below:
Variant A: Immobilization of the BMP-2/ or -4 Protein and Detection of the Binding of Various RGMA-Fc Fusion Proteins
1. Plate: • Immunoplate Cert. MaxiSorp F96 (Nunc, 439454)
Recombinant human BMP-2, Catalog No.: 355-BM, Company: R&D Systems; Recombinant human RGM A, R&D Systems; Prod. #2495-RM, or
Recombinant human BMP-4, Catalog No.: 314-BM, Company: R&D Systems; • Concentration: 10 μg/mL • Volume used: 2.5 μg/mL in Na2CO3; addition: 50 μL per well • 1 hour at 37° C. in damp chamber
3. Washing step: • Wash 3× with PBS/[…] Tween 20
4. Blocking: • 3% BSA in PBS/0.02% Tween, 1 hour at 37° C. in damp chamber; addition: 200 μL per well
RGMA-Fc fragments, • 1 μg/mL initial concentration, then dilution down to 1:2 using PBS/0.02% Tween20 • […] • 1 hour at 37° C. in damp chamber
6. Washing step: • Wash 3× with PBS/0.02% Tween 20
Biotin anti-human Fc (R&D-Systems), Catalog No.: 709065; 1 mg/mL; • 1:200 in 0.6% BAS/PBS-T (0.02% Tween) • Addition: 50 μL per well • 1 hour at 37° C. in damp chamber
8. Secondary antibody: Strep. POD (Roche); Catalog No.: 11089153001 • 500 U; 1:5000 in 0.6% BAS/PBS-T (0.02% Tween) • Addition: 50 μL per well • 1 hour at 37° C. in damp chamber
9. Washing step: • Wash 3× with PBS/0.02% Tween 20
ImmunoPure TMB substrate kit; Pierce, #34021 • Development period: approximately 1-30 minutes • 1:1 mixture of […]; addition: 50 μL per well
11. Stop: • 2.5 M H2SO4; addition: 50 μL per well
The test was conducted according to test method 4, variant A above, with immobilization of BMP-4 (1 mg/mL). The binding of the fusion proteins was detected using anti-human-Fc or anti-Myc anti-rabbit (Invitrogen) antibodies.
The test was conducted according to test method 4, variant A above, with immobilization of BMP-4 (1 mg/mL). The binding of the fusion proteins was detected using anti-human-antibodies.

[1] = test system: BMP signalling (rhBMP-2-induced luciferase activity); assay: BRE-Luc assay on BMP signalling in BMP-responsive C3H10-B12 cells; format: cell-based; settings: combined with rhBMP-2 at 50 ng/ml, 24 h
Method: Evaluation of the Agonistic or Antagonistic Effect of h RMG A on BMP Signalling using BRE-Luc Assay
a) Materials: • Three compounds were provided at 200 μg/ml.
fragment #788 (IgK/hRGM A 47-422/Xa cleavage site/Fc) • recombinant h BMP-2 (from CHO cells; #355-BM) and monoclonal anti-human BMP2/4 antibodies (#MAB3552) were obtained from R&D Systems Europe, Lille, France • Bright-Glo Luciferase assay kit were purchased from Promega
All experiments were performed in triplicate, and were repeated at two separate times.

Recombinant human BMP-4 = target: T2, Recombinant human BMP-4; assay: ELISA, BMP-4 immobilised, fragment titrated, detection with anti-human Fc antibody
Description: The binding of the fusion proteins was detected using anti-human-antibodies.

SH-SY5Y cells = assay: Neurite growth assay using SH-SY5Y cells (test method 1); format: cell-based, human; settings: FIG. 7A
Description: Test Method 1: Illustration of the Effect of RGM Peptides in the Neurite Growth Assay, Using SH-SY5Y Cells
SH-SY5Y cells are human neuroblastoma cells. Blastomas are embryonic tumors which originate during tissue and organ formation. The origin of the blastoma cells is frequently unknown, since in early embryonic states the differentiation of many cells is still premature; i.e., the blastoma cells are a heterogeneous cell population. The cells of a neuroblastoma, referred to as neuroblasts, originate from the neural crest (structure of the embryonic state) from the autonomous nerve tissue, and are practically arrested in an immature stage. The cells in the present case originated from a clonal subculture of the neuroepitheliomal cell line SK-N-SH which were isolated in 1970 in a bone marrow biopsy of a child with metastases of the neuroblastomas.
Culture Medium for SH-SY5Y Cells (ECACC No. 94030304)
The medium was sterile-filtered using a Nunc 500-mL filter, and was stored in a refrigerator at 4° C. until used. Before use, the medium was heated to 37° C. in a water bath.
SH-SY5Y cells are epithelial, neuron-like cells which slowly adherently grow in a monolayer and never attain a confluence of 100% (maximum 80%). The cell culture was split 1:3 two times per week. Isolation of the cells requires incubation with trypsin for 1-3 minutes in an incubator.
Since this is a population of still immature precursor cells, it is possible to differentiate the cells using retinoic acid, so that a certain percentage of the cells acquire neurite-like extensions. For this purpose the culture was incubated in the medium with 10 μM retinoic acid directly in the culture dish or flask, depending on the test, for 3 days.
Microtiter plates (96-well) (containing collagen I-coated plates) were additionally coated with the hRGM A fragments. After washing two times with PBS the cells were seeded. […] In the quantitative analysis the SH-SY5Y cells grown on hRGM A fragments were compared to SH-SY5Y grown on collagen I alone. The neurite length of the cells was automatically measured and used for the analysis. […]

NTera-2 cells = assay: Neurite growth test using NTera-2 cells (test method 2); format: cell-based, human; settings: FIG. 7B
Description: Test Method 2: Illustration of the Effect of RGM Peptides in the Neurite Growth Test, Using NTera-2 Cells
The human pluripotent cancer cell line NTera2 (DSMZ ACC527) is established as a cell culture model. Neurites grow from cell aggregates and form a corona of neurites around the particular aggregate.
NTera-2 cells are human embryonic teratocarcinoma cells. A carcinoma is a cancerous tumor, whereas a teratoma or teratocarcinoma is a mixed tumor of the germ cells composed of various differentiated and undifferentiated tissues, and therefore, the same as for the SH-SY5Y culture, comprises a heterogeneous population. The tumor is usually present in an encapsulated form in the various types, such as hair, skin, teeth, muscle, and nerve tissue. The tumors typically originate in the ovaries, testes, abdominal cavity, or brain. The cell line was cloned from the Tera-2 line, obtained from a metastatic teratocarcinoma in a person.
NTera-2 cells are epithelial, adherently growing cells which form a monolayer. Due to the large number of granular particles which they contain, NTera-2 cells may be easily differentiated from the other cells. The cells were cultivated by 1:5 splitting twice a week. The cells of this mixed culture may be differentiated using retinoic acid in neuronal cells.
Culture Medium Fur Growth […]
In order to differentiate the cells it was necessary to introduce antibiotic into the culture medium of the cell line due to the fact that the cells remained in the same culture flask for three weeks. Previously, the undifferentiated culture had been detrypsinated and the cell count determined using a Neubauer counting chamber. […] 25 μL retinoic acid (10 μM) was readded to the medium under dim light conditions. […]
The culture was stored in an incubator at 37° C. with 5% CO2 gassing, and the medium was changed at the beginning and at the end of the week. […] After three weeks the cells were differentiated and were ready for use in experiments. […]
Different plate formats were used for the tests. For the isolation of protein, 6-well plates were necessary for recovering a sufficient quantity. […]

Row | binding result (Recombinant human BMP-4) | Molecule | binding to immobilized BMP-4 (BMP-4) | effect on BMP-2-induced luciferase activity [1] | inhibition of neurite growth (SH-SY5Y cells) | inhibition of neurite growth (NTera-2 cells)
1 | – | fragment #785: Fc fusion protein of human RGM A amino acids 47-90 (PCKILKCNSEFWSATSGSHAPASDDTPEFCAALRSYALCTRRTA; cysteine pairing not given here; also: Fc fusion protein (dimerising Fc)) | Significant concentration-dependent binding | did not significantly modify | – | –
2 | binds | 316-386-Fc (#790) (Fc fusion, also called fragment #790; not shown: Factor Xa site from the vector; human IgG Fc (hIgG lambda hc 257-Stop)) LRGCPLNQQIDFQAFHTNAEGTGARRLAAASPAPTAPETFPYETAVAKCKEKLPVEDLYYQACVFDLLTTG | – | – | – | –
3 | – | fragment #790: Fc fusion protein of human RGM A amino acids 316-386 (protein, left off: small tags and cut ends; a dimerising Fc or GST) LRGCPLNQQIDFQAFHTNAEGTGARRLAAASPAPTAPETFPYETAVAKCKEKLPVEDLYYQACVFDLLTTG | Significant concentration-dependent binding | – | inhibit the neurite growth | inhibit the neurite growth
4 | binds | PCKILKCNSEFWSATSGSHAPASDDTPEFCAALRSYALCTRRTA (Fc fusion, Expressed in HEK293F cells; IgK leader left out; also called fragment 47-90; not shown: Factor Xa site from the vector; human IgG Fc (hIgG lambda hc 257-Stop)) [47-90-Fc (#785)] | – | – | – | –

From patent US20100322948A1, “Bone morphogenetic protein (BMP)-binding domains of proteins of the repulsive guidance molecule (RGM) protein family and functional fragments thereof, and use of same” (ABBOTT GMBH & CO. KG, priority 2007, published 2010)
